Measured values reported in US20110105404A1 (TIANJIN MEDICAL UNIVERSITY, published 2011).

How the values were obtained:
Aβ1-42 peptide [1] = assay: cell-based or functional assay
Aβ1-42 peptide [2] = assay: cell-based or functional assay; remark: listed apart in the source

T1/2, time point at which the ThT fluorescence intensity reaches the half-peak (Aβ1-42 peptide [1]) [days] | Inhibition (%) of Aβ1-42 aggregation and fibril formation, ThT fluorescence, 44.30 µmol/L peptide with 11.07 µmol/L Aβ1-42, 37° C., 24 h (Aβ1-42 peptide [2]) [%] | Binder
4 | 27.8 | HKQLPFFEED [H102]
– | 14.9 | HQKLVFFAED [H103]
– | 24.8 | HKQLVFFEED [H101]
